Key:
[1] = biological target: EphA2蛋白 (UniProt P29317 25-534, limits assumed); assay: ELISA, antigen coated at 1 μg/mL
[2] = biological target: T1, B7-H3蛋白 (UniProt Q5ZPR3-2 29-245, limits assumed); assay: ELISA, antigen coated at 1 μg/mL
T1 sequence (looked up): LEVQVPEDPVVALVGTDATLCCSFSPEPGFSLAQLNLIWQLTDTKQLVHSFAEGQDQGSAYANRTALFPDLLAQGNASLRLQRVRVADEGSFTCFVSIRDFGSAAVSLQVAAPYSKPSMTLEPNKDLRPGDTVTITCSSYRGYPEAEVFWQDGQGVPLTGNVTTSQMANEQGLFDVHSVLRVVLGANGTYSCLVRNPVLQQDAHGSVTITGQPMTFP

[3] = biological target: T2, Trop2蛋白 (UniProt P09758 27-274); assay: ELISA, antigen coated at 1 μg/mL
T2 sequence (looked up): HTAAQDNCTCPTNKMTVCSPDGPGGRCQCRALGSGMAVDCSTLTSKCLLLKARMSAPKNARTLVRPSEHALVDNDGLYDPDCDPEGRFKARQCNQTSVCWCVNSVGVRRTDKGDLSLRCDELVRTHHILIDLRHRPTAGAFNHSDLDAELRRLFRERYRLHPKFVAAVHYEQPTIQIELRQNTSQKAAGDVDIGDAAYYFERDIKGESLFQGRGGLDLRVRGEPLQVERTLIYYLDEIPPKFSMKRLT

[4] = biological target: T3, CD24蛋白 (UniProt P25063 27-59); assay: ELISA, antigen coated at 1 μg/mL
T3 chain (looked up): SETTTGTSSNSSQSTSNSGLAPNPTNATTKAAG

[5] = biological target: T4, human-siglec-15蛋白 (human, UniProt Q6ZMC9 20-263, biotinylated in the BLI assay and in phage panning (site not stated)); assay: BLI (Octet RED96), biotinylated siglec-15 on SA sensor, antibody at 5, 10, 20 μg/mL
T4 construct: Bought protein (Novoprotein for ELISA coating; biotinylated antigen from Obiosh for panning); The same entry is used for the plain and the biotinylated protein; also called hsiglec-15; siglec-15抗原
T4 sequence (looked up): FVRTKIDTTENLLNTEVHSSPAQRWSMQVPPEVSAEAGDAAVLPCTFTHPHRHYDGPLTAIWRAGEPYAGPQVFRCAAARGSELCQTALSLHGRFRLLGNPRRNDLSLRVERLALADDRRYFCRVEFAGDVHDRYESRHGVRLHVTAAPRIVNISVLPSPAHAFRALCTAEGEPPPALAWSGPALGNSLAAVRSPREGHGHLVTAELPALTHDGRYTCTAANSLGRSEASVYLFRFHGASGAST

Chain of EphA2蛋白 (P29317 25-534 limits assumed): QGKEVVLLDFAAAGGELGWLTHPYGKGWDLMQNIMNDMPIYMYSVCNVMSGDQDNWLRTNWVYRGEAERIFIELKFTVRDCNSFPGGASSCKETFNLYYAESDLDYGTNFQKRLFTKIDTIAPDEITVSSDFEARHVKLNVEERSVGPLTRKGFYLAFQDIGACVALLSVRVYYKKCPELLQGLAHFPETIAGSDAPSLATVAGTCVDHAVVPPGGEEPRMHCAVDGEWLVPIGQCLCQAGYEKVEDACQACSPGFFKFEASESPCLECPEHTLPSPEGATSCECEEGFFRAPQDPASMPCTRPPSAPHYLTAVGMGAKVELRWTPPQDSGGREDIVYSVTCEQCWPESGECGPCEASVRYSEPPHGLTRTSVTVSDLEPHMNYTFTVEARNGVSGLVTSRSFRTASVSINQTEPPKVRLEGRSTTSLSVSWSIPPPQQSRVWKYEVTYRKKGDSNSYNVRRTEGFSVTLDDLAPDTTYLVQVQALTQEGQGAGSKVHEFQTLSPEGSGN

- binding result [1]: no binding
- binding result [2]: no binding
- binding result [3]: no binding
- binding result [4]: no binding
- Kd [5]: ~1 nM
B1: S131-IgG1 (antibody, V domains shown)
VH: QVQLQESGPGLVNPSGTLSLSCTVSGDSIRNWYSWVRQPPGKGLEWIGEIHDNGGTNHNPSLKSRVTMSVGKSTSQLSLILNSVTAADTAVYHCAREGLPDGLDIWGPGTMVTVSS
VL: SSELTQDPAVSVALGQTVRITCQGDSLRSYYASWYQRKPGQAPILVMYGQNNRPSGIPDRFSGSNSRNTASLTITGAQAEDEADYYCGSRDTSDYRVLFGGGTKLTVLG
notes: also called 抗siglec15-IgG1重组抗体S131-IgG1; 全人源抗siglec-15-IgG1抗体
